Test results: the DeepSol protein solubility set

Test: soluble on expression in E. coli; label from the status in PepcDB or PDB records

Row | Sequence | soluble on expression in E. coli
1 | MTPRKPAVKKEVKEEEPGAPGKEGAAEGPLDPSGYNPAKNNYHPVEDACWKPGQKVPYLAVARTFEKIEEVSARLRMVETLSNLLRSVVALSPPDLLPVLYLSLNHLGPPQQGLELGVGDGVLLKAVAQATGRQLESVRAEAAEKGDVGLVAENSRSTQRLMLPPPPLTASGVFSKFRDIARLTGSASTAKKIDIIKGLFVACRHSEARFIARSLSGRLRLGLAEQSVLAALSQAVSLTPPGQEFPPAMVDAGKGKTAEARKTWLEEQGMILKQTFCEVPDLDRIIPVLLEHGLERLPEHCKLSPGIPLKPMLAHPTRGISEVLKRFEEAAFTCEYKYDGQRAQIHALEGGEVKIFSRNQEDNTGKYPDIISRIPKIKLPSVTSFILDTEAVAWDREKKQIQPFQVLTTRKRKEVDASEIQVQVCLYAFDLIYLNGESLVREPLSRRRQLLRENFVETEGEFVFATSLDTKDIEQIAEFLEQSVKDSCEGLMVKTLDVDATYEIAKRSHNWLKLKKDYLDGVGDTLDLVVIGAYLGRGKRAGRYGGFLLASYDEDSEELQAICKLGTGFSDEELEEHHQSLKALVLPSPRPYVRIDGAVIPDHWLDPSAVWEVKCADLSLSPIYPAARGLVDSDKGISLRFPRFIRVREDKQPEQATTSAQVACLYRKQSQIQNQQGEDSGSDPEDTY | soluble
2 | AHHHHHHGSKVEKGDVIRLHYTGKVKETGEIFDTTYEDVAKEARIYNPNGIYGPVPIAVGAGHVLPGLDKRLIGLEVKKKYVIEVPPEEGFGLRDPGKIKIIPLGKFRKSGIIPYPGLEIEVETENGRKMRGRVLTVSGGRVRVDFNHPLAGKTLVYEVEVVEKIEDPIEKIKALIELRLPMIDKDKVIIEISEKDVKLNFKDVDIDPKTLILGEILLESDLKFIGYEKVEFEPTIEELLKPKSAEEQESPNEEQQEESESKAEES | not soluble
3 | MSYYHHHHHHDYDIPTTENLTFQGAMEPTSSLNRGDRKKGSSLVTGSEVQSQSNGASCFITTDSEKSLVSRQASQVEQIELRTYVFLDSLQPQLAAYMGTVSRGFLPIPGDSCLWMEVSPGMAVHRVTDIALKASNVRLGQMIVERAFGSLALYHKDQSTVLHSGDVVLDAIGSEVRKRTKPSTSWTEVICAITPDHAVLINRQNRSGSMIQSGMSMFILETEPAGYVLKAANEAEKSANITIIDVKAVGAFGRLTLAGKEGDVEEAAAAAIRAIDQISNY | soluble
4 | DIQFSAGLFFQYNLSENFSLRIDPTFDRKGYQYKDITFTDNSGNILGTGKLYGHLDYITIPVLFKASVGNKVKYFVNAGPSIGLLLSETFIYDNPYGNGNQKTHNTNQYKKADAGITAGLGIAIPLGNAIALSFEVRNNVGLTNINKNSNANSAIHANTTSMLVGVAYKF | not soluble
5 | MGSDKIHHHHHHMKITTKQVGARMREARKKKKYTLRYLANKIGLSSGSTISNWELGLNLPNKRYLKKIAKACDTTVDWLLYGDFDRFVRQLLKENFQNKQLLKPPFFTQLMGRLSEEQLSYHDSLKIMIQAQKLQQSFYAFPLTVEAPSHSQESISIYEPTTAEEQSDQSYYHPFILSELHELFTHSQNPELDYSLIIAFLPLLKVDQLTEPQKEVLLAIFKRMNSFKDQTLLNEFFVELQYLL | not soluble
6 | ETRVRRTKTIVEITGLDARSGSLRINELYRWEPVHDNFKRAGDSYVLNEIMRARGWSPDKLFIEFKNREQILAYMTAKQIRDYVSVSLIVHMYATNPQLVMEAVGNDTLRDMVAHHS | not soluble
7 | GSSMVTGGMASKWDQKGMDIAYEEALLGYKEGGVPIGGCLINNKDGSVLGRGHNMRFQKGSATLHGEISTLENCGRLEGKVYKDTTLYTTLSPCDMCTGAIIMYGIPRCVIGENVNFKSKGEKYLQTRGHEVVVVDDERCKKLMKQFIDERPQDWFEDIGE | soluble
8 | MGSDKIHHHHHHLLQAELGITSQRHFYSIGHLFPCGQLLERSRFNRRSKQLIWLVQFIRKAMSEMLPSDKLAIIDSFPLPLCQPVRNHRASIFKGLADIGYNASKHLWFYGFKVHMLVTLSGYILNYVVTPASVHDIKVVYELLEGCKQSVILGDLGYLSSELKKDLEQEGYHLWTPFRKNMTGAEEHNNWKVMAMRRTIETRFSELCRLFDIEHTLTRSLAGLQLRMEQIILAHNLRYFEMN | not soluble
9 | MGSSHHHHHHSSGLVPRGSHMRLCHPCPWEWTFFQGNCYFMSNSQRNWHDSITACKEVGAQLVVIKSAEEQNFLQLQSSRSNRFTWMGLSDLNQEGTWQWVDGSPLLPSFKQYWNRGEPNNVGEEDCAEFSGNGWNDDKCNLAKFWICKKSAASCSRDEEQFLSPAPATPNPPPA | soluble
10 | QKVTLVKKKQETVSIDAGIDRMRRAVRLLDRAEWVEVIDSVRTNKADLLSAYNLIADNGRLEWVKGNQGEATSFVNGRGDHAIMTEKGEDGVYSLHEAHRIGGKWGNAIPLEKLNSRFNENYPSLRADGFTLLFASDRPDGIGGYDLYMTRRDLEDGIFLEPTLLGMPFNSPYNDYLLVYDELRGIGFFASDRFCPADVVTVYTFVINEEGRPVATDDMALKRAYASLKSIRATQDPERDYSRLIASARDNRTDAEKKASERQIYFPMQGMRIYTRWSDFQSSEAKSLYQDVMARKRKLEQAATRLEELRLLYGRASALERSGMKQEILRLENAIPPLEEEVGRMEKEVRNMELQAVQGF | not soluble
11 | MGSDKIHHHHHHMSTSYEISSLPWLSASHELLLKQVRLGSLSHGHLLDVHTQLGGDVLAQSMAKLILCQALTPVGACGQCKACLLVSAGTHPDLHSVAPDGNQIKVDQIRSLCSSLTSTAQQGGKRVAIIYQSERMNTASANALLKTLEEPGKETFLLLQTDRTAALLATVKSRCQTLSITPPSNAEVNAWLKGQQLLPVVPDGAKPHDVTWCLSVVGGPIQLAQSLQSDKYQTLLNYRKEWAMSLSSGHLCGSLLALKDNQLIDALQVLYLYLRHFVLKSNDINAFTKAQVITLAAKIMEMRHKLTTMAAVNTQALCMDYVLAFRQLTHTHR | not soluble
12 | MGRVGVLLANLGTPDDYSYWPMRRYLNEFLSDKRVIDYPAWKWQPILQGIILTKRPFSSGAAYESIWNHDKGESPLMTITKDQTAKLRAALAERYGDRVMVDFCMRYGNPSTKSKVRQMVTEGCDRILFFPLYPQYAGATTATANDQFFRALMDETWQPAARTVPAYFDQPAYVDALAQSIERAYAAMDSRPDVLVCSYHGMPERYLMQGD | not soluble
13 | MTMKGGVASQDFSAAIATACEPAANVWSKVCVALKRELGDAAFGSWIAPAMLREAATGDVVLVTSTGIARDWIRRSAWRRIGELWAAHDATGRRIDLKSRLEFEAAAGAYVEATPKAVAAEPIEIVLPVSTDAPTVVAPSAKSPRTQGLQERFTFETFVPGPANEFAHAVARRIANWADGHFNPVLFHGPYGFGKTHLLNALAWEAMRNAPEKRVVYLTAERFLSTFVRAVMDRQTAAFKEELRAADLLIIDDVHFIAGKQSTQEELFHTLTALVGEGGRVVFSADRPPSAMTEMDAHLRSHLSAGLVCGLEPADRNLRLGILERKIQTLGAAHGFEPSIRPEVMQFLADRFTDSVRELEGALNTLSARAGEGLSRMTLDEVQAILRPHLRSGEKRITIDDIQKATAEHYGMKQADLLSERRNRAVARPRQAAMWLAKQLTTRSLPDIGRRFGGRDHTTVLHAVRRIEALRAEDSALSHDLETLTRKLRGLEHHHHHH | not soluble
14 | IHTSPYSKDAPLVASLSVNQKITGRNSEKDVRHIEIDLGDSGLRYQPGDALGVWYQNDPALVKELVELLWLKGDEPVTVEGKTLPLNEALQWHFELTVNTANIVENYATLTRSETLLPLVGDKAKLQHYAATTPIVDMVRFSPAQLDAEALINLLRPLTPRLYSIASSQAEVENEVHVTVGVVRYDVEGRARAGGASSFLADRVEEEGEVRVFIEHNDNFRLPANPETPVIMIGPGTGIAPFRAFMQQRAADEAPGKNWLFFGNPHFTEDFLYQVEWQRYVKEGVLTRIDLAWSRDQKEKVYVQDKLREQGAELWRWINDGAHIYVCGDANRMAKDVEQALLEVIAEFGGMDTEAADEFLSELRVERRYQRDVY | soluble
15 | MKLSTKLCWCGIKGRLRPQKQQQLHNTNLQMTELKKQKTAEQKTRPQNVGIKGIQIYIPTQCVNQSELEKFDGVSQGKYTIGLGQTNMSFVNDREDIYSMSLTVLSKLIKSYNIDTNKIGRLEVGTETLIDKSKSVKSVLMQLFGENTDVEGIDTLNACYGGTNALFNSLNWIESNAWDGRDAIVVCGDIAIYDKGAARPTGGAGTVAMWIGPDAPIVFDSVRASYMEHAYDFYKPDFTSEYPYVDGHFSLTCYVKALDQVYKSYSKKAISKGLVSDPAGSDALNVLKYFDYNVFHVPTCKLVTKSYGRLLYNDFRANPQLFPEVDAELATRDYDESLTDKNIEKTFVNVAKPFHKERVAQSLIVPTNTGNMYTASVYAAFASLLNYVGSDDLQGKRVGLFSYGSGLAASLYSCKIVGDVQHIIKELDITNKLAKRITETPKDYEAAIELRENAHLKKNFKPQGSIEHLQSGVYYLTNIDDKFRRSYDVKK | soluble
16 | RILDIDPVAQTAVVEPGVVCDALRDAAAEFGLTYGPDPSTHSRCTIGGMVANNACGSHSVAFGTAAENLVDVTLMLSDGREVTVTKDGCDDAEINQKLTDLASKNQDLISKELGRFPRQVSGYGLHYLAHDMAKAMAGTEGTIGIITRLTVKLVPTP | not soluble
17 | RIPVVGITGSKGMTTIARFVASLLTLSGRRTGLACSSGLYLDHRKIDHGNCANHKSARRILMNRTVEAAVFENGFDTMLEEGLPYDSCQVGIVTRIEPALHFAHQWIDTSEQVFKVLRTQVDVVSPTGGKREGDILPEIILPTGAAILNAQDPMLVQMADLCQGEVIYISCDPTLPVISVHRQEGTGPTRGKRAVTVRNWEILLIDGTAETILIRLDELQAKTGNHPVETAHLLAGVGAGWALGMSPDLIRTGLITFLQHQEKQSIVYQTF | not soluble
18 | MSLAQFVDWDLAAATAGTLGKTGPRVSYVEATAVVGDLRQLTDEAAEHVADFTGLRSQVSHPPVQVVDRRDWAATNVAGLREMIGPLVGRLAGDKQPSVLTEAIGSRITGVQAGTVLAYLSGRVLGQYEVFSGEPGQLLLIAPNIVEVERKLAADPRDFRMWVCLHEVTHRTQFTAVPWLRAYFLGEVQAFVDASSSGGEPLVERLRRGITVLADAVREPAGRTSVLDIVQTPAQKAVLDRLTALMTLLEGHAEFVMDGVGPQVIPSVERIRASFNRRRESGNPLEKALRRLLGVEVKLRQYAEGRSFVHGVVERVGMEGFNRVFASPLTLPRLAELSDPDAWVARVHGPAGPLPAGDEGHHHHHH | soluble
19 | MDESTCPIIEAIREVGKENDLLVIRLLSDNDLGFNQILKLAGKMSPKTLSVTLKRLTEKKIIYRDVVSTQPFRVKYRLTEKGQELRNVLNDLGQWGERWILNNESQSAVNTENYRLKS | not soluble
20 | MGTRDDEYDYLFKVVLIGDSGVGKSNLLSRFTRNEFNLESKSTIGVEFATRSIQVDGKTIKAQIWDTAGQERYRAITSAYYRGAVGALLVYDIAKHLTYENVERWLKELRDHADSNIVIMLVGNKSDLRHLRAVPTDEARAFAEKNGLSFIETSALDSTNVEAAFQTILTEIYRIVSQKQMSDRRENDMSPSNNVVPIHVPPTTENKPKVQCCQNI | soluble
21 | MSRTMAEVNRLLKKTAGLINKDTESPFQGEFRVGVDLGTADIQTIVLDADGNPLAGFMDWANVVRDGVVVDFFGASQIVREQVRRASAKLGIQIEQVTTSFPPGTDSRISTNVIEAAGLEVAGVIDEPSSVAQLLQLDHAAVVDIGGGTTGTAIIEEGRVVRSMDDATGGRHITLTLAGHFGLPYEEAEEMKRTSKDLALCRLAAPVIAKMADIVHGHIAGHKVPAIYLTGGSCALPGFLEVFAAEFPGIEIVMPSHPLYLTPLAIATYSDVLQTREQRVGLEHHHHHH | not soluble
